Measured values from patent publication US6512097.
Where “and” joins values, the source holds several entries; their conditions need not be identical. Identical values can stand only once.

The binders below were run against T1, c-erbB-2 ECD with a Ser-Gly-His6 C-terminal fusion (UniProt P04626 23-652) (assay: SPR BIAcore).
T1 construct: extracellular domain; Expressed from CHO cells, IMAC purified; coupled to a CM5 chip, coated on plates, or biotinylated with NHS-LC-biotin; also called c-erbB-2 extracellular domain; biotinylated c-erbB-2 ECD

| Binder | Kd | Kd (mutant)/Kd (C6.5) | koff | kon |
| --- | --- | --- | --- | --- |
| C6.5F100lA (scFv, C6.5 VH CDR3 scan mutant; Kabat numbering; also called F1001A) scFv: QVQLLQSGAELKKPGESLKISCKGSGYSFTSYWIAWVRQMPGKGLEYMGLIYPGDSDTKYSPSFQGQVTISVDKSVSTAYLQWSSLKPSDSAVYFCARHDVGYCSSSNCAKWPEYAQHWGQGTLVTVSSGGGGSGGGGSGGGGSQSVLTQPPSVSAAPGQKVTISCSGSSSNIGNNYVSWYQQLPGTAPKLLIYGHTNRPAGVPDRFSGSKSGTSASLAISGFRSEDEADYYCAAWDDSLSGWVFGGGTKLTVLG | 454 nM | 28.4 | 0.05 s⁻¹ | 110000 M⁻¹ s⁻¹ |
| C6.5S100aA (scFv, C6.5 VH CDR3 scan mutant; Kabat numbering) scFv: QVQLLQSGAELKKPGESLKISCKGSGYSFTSYWIAWVRQMPGKGLEYMGLIYPGDSDTKYSPSFQGQVTISVDKSVSTAYLQWSSLKPSDSAVYFCARHDVGYCASSNCAKWPEYFQHWGQGTLVTVSSGGGGSGGGGSGGGGSQSVLTQPPSVSAAPGQKVTISCSGSSSNIGNNYVSWYQQLPGTAPKLLIYGHTNRPAGVPDRFSGSKSGTSASLAISGFRSEDEADYYCAAWDDSLSGWVFGGGTKLTVLG | 28 nM | 1.8 | 0.013 s⁻¹ | 470000 M⁻¹ s⁻¹ |
| C6.5N100dA (scFv, C6.5 VH CDR3 scan mutant; Kabat numbering) scFv: QVQLLQSGAELKKPGESLKISCKGSGYSFTSYWIAWVRQMPGKGLEYMGLIYPGDSDTKYSPSFQGQVTISVDKSVSTAYLQWSSLKPSDSAVYFCARHDVGYCSSSACAKWPEYFQHWGQGTLVTVSSGGGGSGGGGSGGGGSQSVLTQPPSVSAAPGQKVTISCSGSSSNIGNNYVSWYQQLPGTAPKLLIYGHTNRPAGVPDRFSGSKSGTSASLAISGFRSEDEADYYCAAWDDSLSGWVFGGGTKLTVLG | 29 nM | 1.8 | 0.012 s⁻¹ | 410000 M⁻¹ s⁻¹ |
| C6.5Q101A (scFv, C6.5 VH CDR3 scan mutant; Kabat numbering) scFv: QVQLLQSGAELKKPGESLKISCKGSGYSFTSYWIAWVRQMPGKGLEYMGLIYPGDSDTKYSPSFQGQVTISVDKSVSTAYLQWSSLKPSDSAVYFCARHDVGYCSSSNCAKWPEYFAHWGQGTLVTVSSGGGGSGGGGSGGGGSQSVLTQPPSVSAAPGQKVTISCSGSSSNIGNNYVSWYQQLPGTAPKLLIYGHTNRPAGVPDRFSGSKSGTSASLAISGFRSEDEADYYCAAWDDSLSGWVFGGGTKLTVLG | 8.2 nM | 0.5 | 0.0098 s⁻¹ | 1.2e+06 M⁻¹ s⁻¹ |
| C6.5H102A (scFv, C6.5 VH CDR3 scan mutant; Kabat numbering) scFv: QVQLLQSGAELKKPGESLKISCKGSGYSFTSYWIAWVRQMPGKGLEYMGLIYPGDSDTKYSPSFQGQVTISVDKSVSTAYLQWSSLKPSDSAVYFCARHDVGYCSSSNCAKWPEYFQAWGQGTLVTVSSGGGGSGGGGSGGGGSQSVLTQPPSVSAAPGQKVTISCSGSSSNIGNNYVSWYQQLPGTAPKLLIYGHTNRPAGVPDRFSGSKSGTSASLAISGFRSEDEADYYCAAWDDSLSGWVFGGGTKLTVLG | 19 nM | 1.2 | 0.011 s⁻¹ | 590000 M⁻¹ s⁻¹ |
| C6.5S100bA (scFv, C6.5 VH CDR3 scan mutant; Kabat numbering) scFv: QVQLLQSGAELKKPGESLKISCKGSGYSFTSYWIAWVRQMPGKGLEYMGLIYPGDSDTKYSPSFQGQVTISVDKSVSTAYLQWSSLKPSDSAVYFCARHDVGYCSASNCAKWPEYFQHWGQGTLVTVSSGGGGSGGGGSGGGGSQSVLTQPPSVSAAPGQKVTISCSGSSSNIGNNYVSWYQQLPGTAPKLLIYGHTNRPAGVPDRFSGSKSGTSASLAISGFRSEDEADYYCAAWDDSLSGWVFGGGTKLTVLG | 47 nM | 2.9 | 0.016 s⁻¹ | 340000 M⁻¹ s⁻¹ |
| C6.5K100gA (scFv, C6.5 VH CDR3 scan mutant; Kabat numbering) scFv: QVQLLQSGAELKKPGESLKISCKGSGYSFTSYWIAWVRQMPGKGLEYMGLIYPGDSDTKYSPSFQGQVTISVDKSVSTAYLQWSSLKPSDSAVYFCARHDVGYCSSSNCAAWPEYFQHWGQGTLVTVSSGGGGSGGGGSGGGGSQSVLTQPPSVSAAPGQKVTISCSGSSSNIGNNYVSWYQQLPGTAPKLLIYGHTNRPAGVPDRFSGSKSGTSASLAISGFRSEDEADYYCAAWDDSLSGWVFGGGTKLTVLG | 9.8 nM | 0.6 | 0.0042 s⁻¹ | 430000 M⁻¹ s⁻¹ |
| C6.5P100iA (scFv, C6.5 VH CDR3 scan mutant; Kabat numbering) scFv: QVQLLQSGAELKKPGESLKISCKGSGYSFTSYWIAWVRQMPGKGLEYMGLIYPGDSDTKYSPSFQGQVTISVDKSVSTAYLQWSSLKPSDSAVYFCARHDVGYCSSSNCAKWAEYFQHWGQGTLVTVSSGGGGSGGGGSGGGGSQSVLTQPPSVSAAPGQKVTISCSGSSSNIGNNYVSWYQQLPGTAPKLLIYGHTNRPAGVPDRFSGSKSGTSASLAISGFRSEDEADYYCAAWDDSLSGWVFGGGTKLTVLG | 10 nM | 0.6 | 0.011 s⁻¹ | 1.05e+06 M⁻¹ s⁻¹ |

Next, values leading:

| Kd | Kd (mutant)/Kd (C6.5) | koff | kon | Binder |
| --- | --- | --- | --- | --- |
| 48 nM | 3 | 0.015 s⁻¹ | 310000 M⁻¹ s⁻¹ | C6.5V97A (scFv, C6.5 VH CDR3 scan mutant; Kabat numbering) scFv: QVQLLQSGAELKKPGESLKISCKGSGYSFTSYWIAWVRQMPGKGLEYMGLIYPGDSDTKYSPSFQGQVTISVDKSVSTAYLQWSSLKPSDSAVYFCARHDAGYCSSSNCAKWPEYFQHWGQGTLVTVSSGGGGSGGGGSGGGGSQSVLTQPPSVSAAPGQKVTISCSGSSSNIGNNYVSWYQQLPGTAPKLLIYGHTNRPAGVPDRFSGSKSGTSASLAISGFRSEDEADYYCAAWDDSLSGWVFGGGTKLTVLG |
| 59 nM | 3.7 | 0.053 s⁻¹ | 900000 M⁻¹ s⁻¹ | C6.5Y99A (scFv, C6.5 VH CDR3 scan mutant; Kabat numbering) scFv: QVQLLQSGAELKKPGESLKISCKGSGYSFTSYWIAWVRQMPGKGLEYMGLIYPGDSDTKYSPSFQGQVTISVDKSVSTAYLQWSSLKPSDSAVYFCARHDVGACSSSNCAKWPEYFQHWGQGTLVTVSSGGGGSGGGGSGGGGSQSVLTQPPSVSAAPGQKVTISCSGSSSNIGNNYVSWYQQLPGTAPKLLIYGHTNRPAGVPDRFSGSKSGTSASLAISGFRSEDEADYYCAAWDDSLSGWVFGGGTKLTVLG |
| 24 nM | 1.5 | 0.011 s⁻¹ | 450000 M⁻¹ s⁻¹ | C6.5S100cA (scFv, C6.5 VH CDR3 scan mutant; Kabat numbering) scFv: QVQLLQSGAELKKPGESLKISCKGSGYSFTSYWIAWVRQMPGKGLEYMGLIYPGDSDTKYSPSFQGQVTISVDKSVSTAYLQWSSLKPSDSAVYFCARHDVGYCSSANCAKWPEYFQHWGQGTLVTVSSGGGGSGGGGSGGGGSQSVLTQPPSVSAAPGQKVTISCSGSSSNIGNNYVSWYQQLPGTAPKLLIYGHTNRPAGVPDRFSGSKSGTSASLAISGFRSEDEADYYCAAWDDSLSGWVFGGGTKLTVLG |

Target: T1, c-erbB-2 ECD with a Ser-Gly-His6 …
Assay: SPR BIAcore
Remark: another data set of the same source
Protocol: All assays were performed in triplicate. Briefly, […] of radioiodinated sFv was added to 5×10^6 SK-OV cells in the presence of increasing concentrations of unlabeled sFv from the same preparation. After a 30 minute incubation at 20° C., the samples were washed with PBS at 4° C. and centrifuged at 500 g. The amount of labeled sFv bound to the cells was determined by counting the pellets in a gamma counter and the K_a, and K_d were calculated using the EBDA program (V 2.0, G. A. McPherson, 1983). The K_d of all the other isolated sFv were determined using surface plasmon resonance in a BIAcore (Pharmacia). In a BIAcore flow cell, approximately 1400 resonance units (RU) of c-erbB-2 ECD (25 μg/ml in 10 mM sodium acetate, pH 4.5) was coupled to a CM5 sensor chip (Johnsson et al. (1991), supra). Association and dissociation-rates were measured under continuous flow of […] using a concentration range from 50 to 800 nM. Rate constant $kon$ was determined from a plot of (1(dR/dt))/t vs concentration (Karlsson et al. (1991), supra). Rate constant $Hoff$ was determined from the dissociation part of the sensorgram at the highest concentration of sFv analyzed.
Dashes indicate sequence identity. Mutations arising from PCR error and located outside V_H CDR3 are listed under the heading other mutations. F = frequency of isolated scFv. *$koff$ determined from unpurified scFv samples. Underline indicates mutated residue.

| Kd | koff | Binder |
| --- | --- | --- |
| 0.77 nM | 0.00029 s⁻¹ | C6MH3-B15 (scFv, C6ML3-9 sFv, VH CDR3 library B mutant) scFv: QVQLLQSGAELKKPGESLKISCKGSGYSFTSYWIAWVRQMPGKGLEYMGLIYPGDSDTKYSPSFQGQVTISVDKSVSTAYLQWSSLKPSDSAVYFCARHDVGYCESSRCAKWPEYFQHWGQGTLVTVSSGGGGSGGGGSGGGGSQSVLTQPPSVSAAPGQKVTISCSGSSSNIGNNYVSWYQQLPGTAPKLLIYGHTNRPAGVPDRFSGSKSGTSASLAISGFRSEDEADYYCASWDYTLSGWVFGGGTKLTVLG |
| 0.87 nM | 0.00033 s⁻¹ | C6MH3-B9 (scFv, C6ML3-9 sFv, VH CDR3 library B mutant) scFv: QVQLLQSGAELKKPGESLKISCKGSGYSFTSYWIAWVRQMPGKGLEYMGLIYPGDSDTKYSPSFQGQVTISVDKSVSTAYLQWSSLKPSDSAVYFCARHDVGYCKTAACAKWPEYFQHWGQGTLVTVSSGGGGSGGGGSGGGGSQSVLTQPPSVSAAPGQKVTISCSGSSSNIGNNYVSWYQQLPGTAPKLLIYGHTNRPAGVPDRFSGSKSGTSASLAISGFRSEDEADYYCASWDYTLSGWVFGGGTKLTVLG |
| 0.22 nM | 0.00023 s⁻¹ | C6MH3-B11 (scFv, C6ML3-9 sFv, VH CDR3 library B mutant) scFv: QVQLLQSGAELKKPGESLKISCKGSGYSFTSYWIAWVRQMPGKGLEYMGLIYPGDSDTKYSPSFQGQVTISVDKSVSTAYLQWSSLKPSDSAVYFCARHDVGYCSDRSCAKWPEYFQHWGQGTLVTVSSGGGGSGGGGSGGGGSQSVLTQPPSVSAAPGQKVTISCSGSSSNIGNNYVSWYQQLPGTAPKLLIYGHTNRPAGVPDRFSGSKSGTSASLAISGFRSEDEADYYCASWDYTLSGWVFGGGTKLTVLG |
| 0.31 nM and 0.58 nM | 0.00031 s⁻¹ and 0.00032 s⁻¹ | C6MH3-B2 (scFv, C6ML3-9 sFv, VH CDR3 library B mutant) scFv: QVQLLQSGAELKKPGESLKISCKGSGYSFTSYWIAWVRQMPGKGLEYMGLIYPGDSDTKYSPSFQGQVTISVDKSVSTAYLQWSSLKPSDSAVYFCARHDVGYCTDPRCAKWPEYFQHWGQGTLVTVSSGGGGSGGGGSGGGGSQSVLTQPPSVSAAPGQKVTISCSGSSSNIGNNYVSWYQQLPGTAPKLLIYGHTNRPAGVPDRFSGSKSGTSASLAISGFRSEDEADYYCASWDYTLSGWVFGGGTKLTVLG |
| 0.34 nM | 0.00023 s⁻¹ | C6MH3-B5 (scFv, C6ML3-9 sFv, VH CDR3 library B mutant) scFv: QVQLLQSGAELKKPGESLKISCKGSGYSFTSYWIAWVRQMPGKGLEYMGLIYPGDSDTKYSPSFQGQVTISVDKSVSTAYLQWSSLKPSDSAVYFCARHDVGYCTDATCAKWPEYFQHWGQGTLVTVSSGGGGSGGGGSGGGGSQSVLTQPPSVSAAPGQKVTISCSGSSSNIGNNYVSWYQQLPGTAPKLLIYGHTNRPAGVPDRFSGSKSGTSASLAISGFRSEDEADYYCASWDYTLSGWVFGGGTKLTVLG |
